The chains are these.
B1: preproinsulin peptide C19-A3 (peptide)
peptide: GSLQPLALEGSLQKRGIV
notes: Synthetic peptide; also called PI C19-A3; Proinsulin C19-A3

One may read the IC50 as the concentration needed to halve the response being measured.

The target in the assay is T1, HLA-DR4 immunoaffinity-purified from Priess EBV-transformed B cells (DRB1*0401).
T1 construct: Detergent-solubilised native protein, purified with the anti-HLA-DR mAb L243; Priess cells also carry DRw53, which the L243 column would not separate; The elution used cells pulsed with preproinsulin; also called soluble HLA-DR4
The assay can be described thus: competition against 2.5 µM biotinylated invariant chain 98-117 for purified HLA-DR4, L243 capture, DELFIA. Here is the method:
A further selection step was applied based on the following novel initiative. […] HLA-DR4 molecules used in this assay were purified from resting, unmanipulated Priess cell pellets, using the immunoaffinity column approach described above in method 1.1. […] Plates were incubated for a further 1 hour at room temperature and washed 5 times in TBST. Europium-conjugated streptavidin (Perkin Elmer Ltd., Hounslow, UK) was added at 1 μg/ml in dissociation-enhanced time-resolved fluoroimmunoassays (DELFIA) assay buffer (Wallac Oy, Turku, Finland) and incubated for 45 minutes at room temperature. Wells were washed a further 5 times in TBST and 100 μl DELFIA enhancement solution added to each well. Fluorescent intensity was measured in a DELFIA fluorimeter.
Turning to QPLALEGSLQKRGIVEQ (Synthetic peptide) [preproinsulin peptide C22-A5], the IC50 was found to be 400 nM.

GGGPGAGSLQPLALEGSLQK (Synthetic peptide; also called C13-32) [preproinsulin peptide C13-C32] returned an IC50 of 5000 nM. This IC50 lies about 12-fold higher than the previous one. Regarding EDLQVGQVELGGGPGAGSLQPLAL [preproinsulin peptide C3-C26], the IC50 turned out to be 3000 nM. Consider B1, for which the IC50 came out at 500 nM. For the molecule DLQVGQVELGGGPGAGSLQPLALE [preproinsulin peptide C4-C27], the IC50 is 3000 nM.
